This note sets out measurements from the supplement of paper PMC9112550, “Optimization of the antimicrobial peptide Bac7 by deep mutational scanning” (BMC Biology, 2022).

The series concerns Escherichia coli TOP10. The series is described as follows: shrunken log2 fold change of peptide-encoding DNA abundance (4.5 h post-induction vs induction); higher = less antimicrobial activity (less host growth inhibition). The note with it: time post-induction: 4.5 h; library: site-saturation at positions 5, 18, 19, 20.
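Also: peptides expressed intracellularly from a pBAD plasmid library in pooled LB shake-flask culture, induced with 0.3% L-arabinose, DNA abundance read by NGS, three biological replicates, DESeq2 with apeglm shrinkage.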

On to RRIRRRPPRLPRPRPRPAMHPRP, for which the “shrunken log2 fold change” value was found to be 0.422.
In the case of RRIRNRPPRLPRPRPRPKWHPRP, the “shrunken log2 fold change” value was 0.129.
Next, RRIRARPPRLPRPRPRPNCYPRP: -0.211.
Next, RRIRNRPPRLPRPRPRPCTQPRP: -0.147; RRIRMRPPRLPRPRPRPMDNPRP: 0.0672; RRIRNRPPRLPRPRPRPRRSPRP: 0.428.
In the case of RRIRRRPPRLPRPRPRPHFIPRP, the “shrunken log2 fold change” value was -0.0325.
The value for RRIRYRPPRLPRPRPRPIYWPRP was -0.204; that for RRIRHRPPRLPRPRPRPSHCPRP was -0.0642; that for RRIRERPPRLPRPRPRPMYEPRP was -0.00246.
The value for RRIRTRPPRLPRPRPRPDDKPRP was -0.294; that for RRIRSRPPRLPRPRPRPMTRPRP was 0.381.
Next, RRIRVRPPRLPRPRPRPLMPPRP: 0.0146; RRIRQRPPRLPRPRPRPSDVPRP: -0.0706; RRIRIRPPRLPRPRPRPGMVPRP: 0.0533.
On to RRIRPRPPRLPRPRPRPPTDPRP, for which the “shrunken log2 fold change” value stood at 0.184.
The value for RRIRRRPPRLPRPRPRPGMLPRP was 0.0899; that for RRIRNRPPRLPRPRPRPHDKPRP was -0.313.
RRIRFRPPRLPRPRPRPMECPRP: the “shrunken log2 fold change” value is -0.0638.
The value for RRIRNRPPRLPRPRPRPQSIPRP was -0.0502.
For RRIRARPPRLPRPRPRPLRAPRP, the “shrunken log2 fold change” value is 1.19.
For the sequence RRIRMRPPRLPRPRPRPYTKPRP, the “shrunken log2 fold change” value is -0.0606.
Take RRIRCRPPRLPRPRPRPLDHPRP: the “shrunken log2 fold change” value is -0.289.
Next, RRIRPRPPRLPRPRPRPHKRPRP: 0.0853.
Next, RRIRFRPPRLPRPRPRPPYVPRP: -0.36; RRIRHRPPRLPRPRPRPWGRPRP: 0.0574.
Next, RRIRNRPPRLPRPRPRPLIKPRP: -0.651; RRIRCRPPRLPRPRPRPCYGPRP: -0.28; RRIRRRPPRLPRPRPRPWMQPRP: 0.0811.
In the case of RRIRLRPPRLPRPRPRPQWVPRP, the “shrunken log2 fold change” value was -0.0367.
Next, RRIRRRPPRLPRPRPRPMPKPRP: 0.0841; RRIRFRPPRLPRPRPRPTTDPRP: -0.13; RRIRIRPPRLPRPRPRPVTGPRP: -0.37.
RRIRIRPPRLPRPRPRPKVQPRP: the “shrunken log2 fold change” value is -0.491.
Next, RRIRWRPPRLPRPRPRPFHRPRP: -0.2; RRIRVRPPRLPRPRPRPCYGPRP: -0.259.
The value for RRIRWRPPRLPRPRPRPGCCPRP was 0.659.
Take RRIRARPPRLPRPRPRPEGHPRP: the “shrunken log2 fold change” value came to 0.223.
Next, RRIRPRPPRLPRPRPRPFFNPRP: -0.365; RRIRYRPPRLPRPRPRPSWRPRP: -0.137; RRIRIRPPRLPRPRPRPCTLPRP: -1.08.
Take RRIRRRPPRLPRPRPRPLAPPRP: the “shrunken log2 fold change” value is 0.399.
Next, RRIRWRPPRLPRPRPRPLAHPRP: 0.29.
Next, RRIRCRPPRLPRPRPRPYWTPRP: -0.966.
Take RRIRHRPPRLPRPRPRPKIWPRP: the “shrunken log2 fold change” value was -0.0285.
The value for RRIRIRPPRLPRPRPRPKKKPRP was -0.442; that for RRIRLRPPRLPRPRPRPMMVPRP was -0.145.
The value for RRIRWRPPRLPRPRPRPRERPRP was 0.859.
As for RRIRKRPPRLPRPRPRPTNKPRP, the “shrunken log2 fold change” value is 0.14.
The value for RRIRIRPPRLPRPRPRPSHDPRP was -0.527; that for RRIRMRPPRLPRPRPRPPMMPRP was 0.609.
Next, RRIRHRPPRLPRPRPRPIHAPRP: -0.173; RRIRLRPPRLPRPRPRPFAHPRP: -0.367; RRIRDRPPRLPRPRPRPNLWPRP: -0.0934.
Turning to RRIRRRPPRLPRPRPRPGWSPRP, the “shrunken log2 fold change” value was 0.472.
The value for RRIRMRPPRLPRPRPRPEMIPRP was 2.2; that for RRIRDRPPRLPRPRPRPFQVPRP was -0.609; that for RRIRRRPPRLPRPRPRPLPQPRP was 0.436.
As for RRIRFRPPRLPRPRPRPQANPRP, the “shrunken log2 fold change” value was -0.0788.
The value for RRIRCRPPRLPRPRPRPMLWPRP was -0.00796; that for RRIRHRPPRLPRPRPRPFMIPRP was -0.341.
The value for RRIRARPPRLPRPRPRPGYAPRP was 0.0374; that for RRIRHRPPRLPRPRPRPRYHPRP was -0.315.
Next, RRIRWRPPRLPRPRPRPACAPRP: 0.766; RRIRDRPPRLPRPRPRPMFMPRP: 0.169; RRIRPRPPRLPRPRPRPFWTPRP: -0.0762.
Regarding RRIRFRPPRLPRPRPRPEDQPRP, the “shrunken log2 fold change” value came to 0.502.
Next, RRIRMRPPRLPRPRPRPQGCPRP: -0.00385; RRIRWRPPRLPRPRPRPPTPPRP: 1.4.
Regarding RRIRVRPPRLPRPRPRPKCCPRP, the “shrunken log2 fold change” value is -0.0953.
Take RRIRIRPPRLPRPRPRPTTIPRP: the “shrunken log2 fold change” value is -0.578.
Next, RRIRKRPPRLPRPRPRPGSDPRP: 0.737.
Next, RRIRCRPPRLPRPRPRPRQAPRP: 0.00566.
Next, RRIRYRPPRLPRPRPRPLLIPRP: -0.798; RRIRDRPPRLPRPRPRPTPGPRP: 0.468; RRIRGRPPRLPRPRPRPVYNPRP: 0.0349.
For RRIRWRPPRLPRPRPRPSRNPRP, the “shrunken log2 fold change” value was -0.0585.
Next, RRIRMRPPRLPRPRPRPMAVPRP: -0.00104; RRIRKRPPRLPRPRPRPIHTPRP: 0.101.
Next, RRIRCRPPRLPRPRPRPLLVPRP: -0.317; RRIRHRPPRLPRPRPRPYIFPRP: -0.446.
RRIRWRPPRLPRPRPRPEHQPRP: the “shrunken log2 fold change” value was determined as 0.263.
Next, RRIRARPPRLPRPRPRPVTTPRP: 0.342.
The value for RRIRVRPPRLPRPRPRPTGEPRP was 0.187; that for RRIRRRPPRLPRPRPRPIFNPRP was -0.124.
Next, RRIRMRPPRLPRPRPRPIENPRP: -0.142; RRIRTRPPRLPRPRPRPCTWPRP: -0.0134; RRIRTRPPRLPRPRPRPSKTPRP: 0.0543.
For the sequence RRIRVRPPRLPRPRPRPNVFPRP, the “shrunken log2 fold change” value was 0.0413.
For RRIRMRPPRLPRPRPRPCNNPRP, the “shrunken log2 fold change” value was found to be 0.0654.
Next, RRIRDRPPRLPRPRPRPGCSPRP: 0.278; RRIRLRPPRLPRPRPRPMNHPRP: -0.409.
Next, RRIRARPPRLPRPRPRPHRCPRP: 0.0993; RRIRNRPPRLPRPRPRPHQQPRP: 0.317.
Next, RRIRFRPPRLPRPRPRPPVIPRP: 0.0684.
As to RRIRWRPPRLPRPRPRPIVIPRP, the “shrunken log2 fold change” value was -0.353.
As to RRIRPRPPRLPRPRPRPCVLPRP, the “shrunken log2 fold change” value was -0.0304.
The value for RRIRRRPPRLPRPRPRPELKPRP was 0.254; that for RRIRTRPPRLPRPRPRPMWSPRP was -0.0629; that for RRIRTRPPRLPRPRPRPPMYPRP was -0.406.
Consider RRIRKRPPRLPRPRPRPMTDPRP, for which the “shrunken log2 fold change” value turned out to be 0.103.
The value for RRIRERPPRLPRPRPRPECKPRP was -0.132.
The value for RRIRPRPPRLPRPRPRPYDYPRP was -0.355.
Next, RRIRPRPPRLPRPRPRPVSVPRP: 0.0528.
Take RRIRDRPPRLPRPRPRPGMNPRP: the “shrunken log2 fold change” value was 0.164.
Next, RRIRCRPPRLPRPRPRPWMWPRP: -0.00829.
Next, RRIRERPPRLPRPRPRPSLIPRP: -2.26; RRIRDRPPRLPRPRPRPEIFPRP: -0.0297.
The value for RRIRDRPPRLPRPRPRPEWFPRP was 0.257; that for RRIRMRPPRLPRPRPRPDMIPRP was -0.00213; that for RRIRSRPPRLPRPRPRPPNMPRP was -0.118.
As to RRIRNRPPRLPRPRPRPQEDPRP, the “shrunken log2 fold change” value came out at 0.00256.
Next, RRIRGRPPRLPRPRPRPEKRPRP: 0.993; RRIRIRPPRLPRPRPRPTWQPRP: 0.0597; RRIRPRPPRLPRPRPRPTFCPRP: 0.0727.
Next, RRIRPRPPRLPRPRPRPVGMPRP: -0.0812; RRIRERPPRLPRPRPRPTVHPRP: -0.42; RRIRLRPPRLPRPRPRPRNPPRP: -0.0997.
Next, RRIRWRPPRLPRPRPRPDMFPRP: -0.0661; RRIRGRPPRLPRPRPRPVSSPRP: 0.0973; RRIRFRPPRLPRPRPRPRHGPRP: 0.155.
On to RRIRFRPPRLPRPRPRPANLPRP, for which the “shrunken log2 fold change” value is -0.296.
The value for RRIRLRPPRLPRPRPRPVAYPRP was -0.438; that for RRIRSRPPRLPRPRPRPYFYPRP was -0.695; that for RRIRNRPPRLPRPRPRPWSGPRP was -0.173.
